In the test the target is human IgG. Nature of the test: bio-layer interferometry. On the technique in general: BLI is a label-free optical method that tracks binding on a fibre tip over time.

B1: recombinant monoclonal low affinity rheumatoid factor RF^low (human IgM; RC1 of Youngblood et al. 1994) (antibody, V domains shown)
VH: QVQLVQSGGGVVQPGRSLRLSCAASGFTFSSYAMHWVRQAPGKGLEWVAVISYDGSNKYYAESVKGRFTISRDNSKNTLYLRMNSLRTEETAVYYCARDGDVGSYGPGTYYPIDYWGQGTLVSVSP
VL: EIVLTQSPATLSLSPGERATLSCRASQSVSSYLAWYQEKPGTAPRLLIYDASNRATGIPARFSGSGSGTDFTLTISSLEPEDFAVYYCQQRRNWPLTFGPGTKVDIK
With B1, the Kd worked out at 100 nM.

By Kd is commonly meant the constant that tells how readily two partners part at equilibrium.

The record behind these values is patent US20250326863A1.
